Reference: publication PMC4878091

Columns and labels:
PFHR9 NC1 domains = assay: SEC
[1] = target: recombinant collagen IV α112 protomer (r-Prot); assay: SEC

stoichiometry N (PFHR9 NC1 domains)	stoichiometry N [1]	Substance
6	–	PFHR9 NC1 domains
–	2	recombinant collagen IV α112 protomer (r-Prot) (complex)
